Four molecules from patent US20110059490, “POLYMERASE COMPOSITIONS AND USES” (Fermentas UAB, published 2011) can be followed below.

Series [1] has as its target Thermococcus sp. DNA polymerase R671E/K677E/K712E R671E,K677E,K712E (Thermococcus sp.) (UniProt Q56366). The series is described as follows: EMSA. The conditions noted are these: EMSA as for Taq, 1x TAE with 2 mM EDTA.
The target in series [2] is Thermococcus sp. DNA polymerase R671E/K677E R671E,K677E (Thermococcus sp.) (UniProt Q56366). Briefly: EMSA. The conditions noted are these: EMSA as for Taq, 1x TAE with 2 mM EDTA.
Series [3] concerns the target T1, Thermococcus sp. DNA polymerase (Thermococcus sp.) (UniProt Q56366).
T1 sequence: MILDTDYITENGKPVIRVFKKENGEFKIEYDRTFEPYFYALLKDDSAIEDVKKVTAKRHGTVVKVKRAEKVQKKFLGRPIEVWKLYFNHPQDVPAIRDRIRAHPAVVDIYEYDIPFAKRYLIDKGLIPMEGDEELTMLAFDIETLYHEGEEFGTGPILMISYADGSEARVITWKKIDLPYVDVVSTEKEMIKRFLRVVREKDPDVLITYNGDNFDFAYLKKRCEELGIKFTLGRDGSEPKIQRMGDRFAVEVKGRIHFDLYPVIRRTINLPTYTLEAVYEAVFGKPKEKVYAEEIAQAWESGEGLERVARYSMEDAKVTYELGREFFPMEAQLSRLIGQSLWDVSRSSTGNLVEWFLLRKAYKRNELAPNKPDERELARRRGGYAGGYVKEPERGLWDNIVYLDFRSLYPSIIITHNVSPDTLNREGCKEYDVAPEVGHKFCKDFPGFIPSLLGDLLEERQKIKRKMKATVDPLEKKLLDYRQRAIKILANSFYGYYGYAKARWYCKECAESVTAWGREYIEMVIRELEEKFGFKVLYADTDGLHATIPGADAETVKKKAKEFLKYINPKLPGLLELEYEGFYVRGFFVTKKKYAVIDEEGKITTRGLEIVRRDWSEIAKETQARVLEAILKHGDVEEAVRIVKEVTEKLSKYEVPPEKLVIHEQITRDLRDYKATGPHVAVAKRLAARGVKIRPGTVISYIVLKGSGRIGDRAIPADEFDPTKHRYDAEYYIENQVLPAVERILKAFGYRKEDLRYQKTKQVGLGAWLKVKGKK
The series is described as follows: EMSA. The conditions noted are these: EMSA as for Taq, 1x TAE with 2 mM EDTA.

Series [4] addresses T2, Thermococcus sp. DNA polymerase R671S/K677S/K712S R671S,K677S,K712S (Thermococcus sp.) (UniProt Q56366).
T2 sequence: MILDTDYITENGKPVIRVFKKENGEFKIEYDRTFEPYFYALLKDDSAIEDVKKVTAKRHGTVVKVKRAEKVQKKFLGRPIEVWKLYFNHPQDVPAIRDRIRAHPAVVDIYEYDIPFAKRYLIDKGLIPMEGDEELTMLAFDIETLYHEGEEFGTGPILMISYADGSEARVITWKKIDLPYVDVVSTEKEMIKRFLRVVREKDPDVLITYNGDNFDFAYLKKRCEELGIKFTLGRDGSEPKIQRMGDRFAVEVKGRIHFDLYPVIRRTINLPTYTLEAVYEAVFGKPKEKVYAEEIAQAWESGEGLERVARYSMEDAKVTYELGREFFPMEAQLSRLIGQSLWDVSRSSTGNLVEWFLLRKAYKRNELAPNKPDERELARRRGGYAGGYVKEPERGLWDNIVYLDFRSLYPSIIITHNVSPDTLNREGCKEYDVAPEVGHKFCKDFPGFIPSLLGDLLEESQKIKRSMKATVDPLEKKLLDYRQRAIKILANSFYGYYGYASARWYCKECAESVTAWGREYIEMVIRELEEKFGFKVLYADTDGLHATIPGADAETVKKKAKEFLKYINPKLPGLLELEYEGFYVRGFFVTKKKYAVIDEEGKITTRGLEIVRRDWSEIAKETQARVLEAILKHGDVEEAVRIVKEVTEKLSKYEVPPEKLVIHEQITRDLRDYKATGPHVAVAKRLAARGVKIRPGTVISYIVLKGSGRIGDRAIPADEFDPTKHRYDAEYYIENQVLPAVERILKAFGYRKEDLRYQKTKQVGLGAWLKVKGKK
The series is described as follows: EMSA. The conditions noted are these: EMSA as for Taq, 1x TAE with 2 mM EDTA.

The target of series [5] is Thermococcus sp. DNA polymerase (R671S/K677S/K712S)/N210D R671S,K677S,K712S,N210D (Thermococcus sp.) (UniProt Q56366). The series is described as follows: EMSA. The conditions noted are these: EMSA as for Taq, 1x TAE with 2 mM EDTA.
The target of series [6] is Thermococcus sp. DNA polymerase (R671E/K677E/K712E)/N210D R671E,K677E,K712E,N210D (Thermococcus sp.) (UniProt Q56366). The series is described as follows: EMSA. The conditions noted are these: EMSA as for Taq, 1x TAE with 2 mM EDTA.
The target of the next series is Taq DNA polymerase (UniProt P19821 P19821:1-832). Briefly: EMSA; 1x TAE with 2 mM EDTA, pH 8.3, 10% glycerol. As to conditions: tags: recombinant, Fermentas; label: 5'-33P. On the procedure:
(§1) Affinity of Taq DNA polymerase (FIG. 7A) and its mutants (FIG. 7B-J) for double-stranded DNA (template-primer duplex) was analyzed by electrophoretic mobility shift assays (EMSA) as previously described (Lagunavicius et al. (2003) J. Mol. Biol. 326: 1051-1064) except that 1 nM of 24*/44 nt duplex (* indicates ³³P label in 5′-terminus of 24 nt oligonucleotide) formed by annealing of 5′-[…]-3′ (24 nt) and 5′-[…]-3′ (44 nt) and 0, 1, 2, 5, 10, 20, 50, 100, 200, 500, 1000 nM of the proteins were mixed in 1×TAE buffer (40 mM Tris-acetate, pH8.3 at 25° C.; 2 mM EDTA) supplemented with 10% glycerol and electrophoresis was performed in 12% PAAG. The gels were analyzed by Cyclone Storage Phosphor System and OptiQuant™ Image Analysis Software (Packard Instruments) and GraphPad Prism version 4.03 Software (GraphPad Software, Inc.) (FIG. 7).
(§2) Affinity of Taq DNA polymerase (FIG. 8A) and its mutants (FIG. 8B-G) for single-stranded DNA (primer) was analyzed as described in Example 7, except that 5′-labeled 24 nt oligonucleotide (5′-[…]) was used instead of 24*/44 nt duplex (FIG. 8).

Series [7] concerns the target Taq DNA polymerase (K540C/H784C)/Y81F (UniProt P19821 P19821:1-832, K540C,H784C,Y81F). The series is described as follows: EMSA; 1x TAE with 2 mM EDTA, pH 8.3, 10% glycerol. As to conditions: tags: Fermentas. On the procedure: as §1, §2
In series [8] the target is Taq DNA polymerase E491G/R536C/K540C/H784C (UniProt P19821 P19821:1-832, E491G,R536C,K540C,H784C). Briefly: EMSA; 1x TAE with 2 mM EDTA, pH 8.3, 10% glycerol. The conditions noted are these: tags: Fermentas. On the procedure:
as §1, §2

Series [9] addresses Taq DNA polymerase K540C/H784C (UniProt P19821 P19821:1-832, K540C,H784C). Briefly: EMSA; 1x TAE with 2 mM EDTA, pH 8.3, 10% glycerol. The conditions noted are these: tags: Fermentas. On the procedure:
as §1, §2

Series [10] addresses T3, Taq DNA polymerase N485S/R536C/K540C/H784C (UniProt P19821 P19821:1-832, N485S,R536C,K540C,H784C). The series is described as follows: EMSA; 1x TAE with 2 mM EDTA, pH 8.3; tighter than WT. The conditions noted are these: tags: Fermentas; label: 5'-33P.
The target of series [11] is T4, Taq DNA polymerase R536C/K540C/D610A/H784C (UniProt P19821 P19821:1-832, R536C,K540C,D610A,H784C). The series is described as follows: EMSA; 1x TAE with 2 mM EDTA, pH 8.3; above highest tested 1000 nM. The conditions noted are these: tags: Fermentas; label: 5'-33P. On the procedure: as §1, §2
T4 sequence (P19821 whole entry R536C/K540C/D610A/H784C, one chain of several): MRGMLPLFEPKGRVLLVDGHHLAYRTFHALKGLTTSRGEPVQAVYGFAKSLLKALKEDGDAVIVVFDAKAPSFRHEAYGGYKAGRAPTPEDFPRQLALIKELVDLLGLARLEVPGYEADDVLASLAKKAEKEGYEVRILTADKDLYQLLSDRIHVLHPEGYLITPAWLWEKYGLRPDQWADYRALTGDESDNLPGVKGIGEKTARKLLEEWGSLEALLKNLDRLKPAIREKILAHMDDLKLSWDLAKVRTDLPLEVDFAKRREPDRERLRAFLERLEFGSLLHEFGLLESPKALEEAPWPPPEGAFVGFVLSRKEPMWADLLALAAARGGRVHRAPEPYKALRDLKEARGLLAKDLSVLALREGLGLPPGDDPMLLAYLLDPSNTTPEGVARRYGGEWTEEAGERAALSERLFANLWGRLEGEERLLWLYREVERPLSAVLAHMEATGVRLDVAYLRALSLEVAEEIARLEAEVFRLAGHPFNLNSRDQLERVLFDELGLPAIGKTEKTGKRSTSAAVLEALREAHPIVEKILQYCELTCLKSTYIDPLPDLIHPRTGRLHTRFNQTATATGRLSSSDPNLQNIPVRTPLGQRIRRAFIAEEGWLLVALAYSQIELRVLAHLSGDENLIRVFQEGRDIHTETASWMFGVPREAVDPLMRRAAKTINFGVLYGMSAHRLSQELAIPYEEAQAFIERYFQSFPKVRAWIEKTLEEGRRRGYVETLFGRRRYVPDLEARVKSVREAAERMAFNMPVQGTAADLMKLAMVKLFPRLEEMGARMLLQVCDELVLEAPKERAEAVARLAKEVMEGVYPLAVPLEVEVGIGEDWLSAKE
The target of series [12] is Taq DNA polymerase (R536C/K540C/D610A/H784C)/(Y81F/G187A) (UniProt P19821 P19821:1-832, R536C,K540C,D610A,H784C,Y81F,G187A). The description is as above. The conditions noted are these: tags: Fermentas. On the procedure: as §1, §2
Chain of Taq DNA polymerase (R536C/K540C/D610A/H784C)/(Y81F/G187A) (P19821 whole entry Y81F/G187A/R536C/K540C/D610A/H784C, one chain of several): as the sequence (P19821 whole entry R536C/K540C/D610A/H784C, one chain of several) above, with Y81F, G187A counted along it
In series [13] the target is T5, Taq DNA polymerase (K540C/H784C)/R25S (UniProt P19821 P19821:1-832, K540C,H784C,R25S). The description is as above. The conditions noted are these: tags: Fermentas; label: 5'-33P. On the procedure: as §1, §2
T5 sequence (P19821 whole entry R25S/K540C/H784C, one chain of several): as the sequence (P19821 whole entry R536C/K540C/D610A/H784C, one chain of several) above, with R25S, C536R, A610D counted along it
The target in series [14] is Taq DNA polymerase (I532T/R536C/K540C/H784C)/(R25S/Y81F/G187A) (UniProt P19821 P19821:1-832, I532T,R536C,K540C,H784C,R25S,Y81F,G187A). The series is described as above. The conditions noted are these: tags: Fermentas. On the procedure: as §1, §2
Chain of Taq DNA polymerase (I532T/R536C/K540C/H784C)/(R25S/Y81F/G187A) (P19821 whole entry R25S/Y81F/G187A/I532T/R536C/K540C/H784C, one chain of several): as the sequence (P19821 whole entry R536C/K540C/D610A/H784C, one chain of several) above, with R25S, Y81F, G187A, I532T, A610D counted along it
The target in series [15] is T6, Taq DNA polymerase I532T/R536C/K540C/H784C (UniProt P19821 P19821:1-832, I532T,R536C,K540C,H784C). Described as above. As to conditions: tags: Fermentas; label: 5'-33P. On the procedure: as §1, §2
T6 sequence (P19821 whole entry I532T/R536C/K540C/H784C, one chain of several): as the sequence (P19821 whole entry R536C/K540C/D610A/H784C, one chain of several) above, with I532T, A610D counted along it
The target in series [16] is T3, Taq DNA polymerase …. The series is described as follows: EMSA; 1x TAE with 2 mM EDTA, pH 8.3, 10% glycerol. As to conditions: tags: Fermentas; label: 5'-33P on 24 nt strand; 24 nt primer annealed to 44 nt template, 20 nt 5' template overhang. On the procedure: as §1, §2
Series [17] concerns the target T4, Taq DNA polymerase …. The series is described as follows: EMSA; 1x TAE with 2 mM EDTA, pH 8.3, 10% glycerol. The conditions noted are these: tags: Fermentas; label: 5'-33P on 24 nt strand; 24 nt primer annealed to 44 nt template, 20 nt 5' template overhang. On the procedure: as §1, §2
Series [18] addresses T5, Taq DNA polymerase (K540C/H784C)/R25S. Briefly: EMSA; 1x TAE with 2 mM EDTA, pH 8.3, 10% glycerol. As to conditions: tags: Fermentas; label: 5'-33P on 24 nt strand; 24 nt primer annealed to 44 nt template, 20 nt 5' template overhang. On the procedure: as §1, §2
Series [19] concerns the target T6, Taq DNA polymerase …. Briefly: EMSA; 1x TAE with 2 mM EDTA, pH 8.3, 10% glycerol. The conditions noted are these: tags: Fermentas; label: 5'-33P on 24 nt strand; 24 nt primer annealed to 44 nt template, 20 nt 5' template overhang. On the procedure:
as §1, §2

[20] abbreviates: label: 5'-33P on 24 nt strand, 24 nt primer annealed to 44 nt template, 20 nt 5' template overhang.

Chain of Taq DNA polymerase (K540C/H784C)/Y81F (P19821 whole entry Y81F/K540C/H784C, one chain of several): as the sequence (P19821 whole entry R536C/K540C/D610A/H784C, one chain of several) above, with Y81F, C536R, A610D counted along it
T3 sequence (P19821 whole entry N485S/R536C/K540C/H784C, one chain of several): as the sequence (P19821 whole entry R536C/K540C/D610A/H784C, one chain of several) above, with N485S, A610D counted along it
Chain of Taq DNA polymerase K540C/H784C (P19821 whole entry K540C/H784C, one chain of several): as the sequence (P19821 whole entry R536C/K540C/D610A/H784C, one chain of several) above, with C536R, A610D counted along it
Chain of Taq DNA polymerase E491G/R536C/K540C/H784C (P19821 whole entry E491G/R536C/K540C/H784C, one chain of several): as the sequence (P19821 whole entry R536C/K540C/D610A/H784C, one chain of several) above, with E491G, A610D counted along it
Chain of Taq DNA polymerase (P19821 whole entry, one chain of several): as the sequence (P19821 whole entry R536C/K540C/D610A/H784C, one chain of several) above, with C536R, C540K, A610D, C784H counted along it

Consider “TTTTAGCCGCTAGAGTCGACCTGC / GGAGACAAGCTTGTATGCCTGCAGGTCGACTCTAGCGGCTAAAA [24/44 nt template-primer duplex]”, for which the Kd in series [1] is 190 nM; in [2], 240 nM; in series [3] it was 2.8 nM; in series [4], 110 nM; in [5], 190 nM; in series [6], 470 nM.
On to TTTTAGCCGCTAGAGTCGACCTGC [24 nt primer], for which the Kd in [1] was found to be 740 nM; in series [2] it was 730 nM; in [3], 52 nM; in series [4], 310 nM; in [5] it was 440 nM; in series [6] it was 2300 nM.
Regarding TTTTAGCCGCTAGAGTCGACCTGC (ssDNA) [24 nt primer], the Kd is 79 nM with Taq DNA polymerase; 350 nM in series [7] (label: 5'-33P); 530 nM in series [8] (label: 5'-33P); 460 nM in series [9] (label: 5'-33P); 23 nM in series [10]; 2000 nM in [11]. Further, the dissociation constant Kd in series [12] (label: 5'-33P) was 3700 nM; in series [13] it was 2700 nM; in series [14] (label: 5'-33P), 7.7 µM; in series [15], 5.2 µM.

B1: 24/44 nt template-primer duplex (dsDNA)
DNA 1: TTTTAGCCGCTAGAGTCGACCTGC
DNA 2: GGAGACAAGCTTGTATGCCTGCAGGTCGACTCTAGCGGCTAAAA
For B1, the Kd is 32 nM in series [16]; 320 nM in series [17]; 28 nM in series [7] (setting [20]); 200 nM in [8] (setting [20]); 56 nM in [18]; 25 nM in series [9] (setting [20]). For the same molecule, the Kd came to 990 nM in series [19], 2200 nM in series [12] (setting [20]) and 16 µM in series [14] (setting [20]).
